Data taken from the DeepSol protein solubility set.

Assay: soluble on expression in E. coli; label from the status in PepcDB or PDB records

Sequence	soluble on expression in E. coli
MIQEPARVQAAPTFEATIREDNAKYQETAAGGTYSSPNCSCSQRRTRPTEPTKDSPTSTITTIPIVIDSKPNPRILLIRVPTSNRGSNSNNNSNSTRSGTEHRAPRTRIIRIPFLPGSVPTRPPSNQAAPATSSLVNPIGSARRCRISTYPTTGTLTSRSQPETVAGLPTTAMVNQTVPVLSSAPQTQTLAAMAGIQLTGADEPPSRRDVSGAMPTATVEEIDVPVFIDEYLQDIEATSSTCNSENGKEIFTETDILDFDINMFAEEDLIELEGKKTDPFSPAMDGMNNDNLDDDFLQLNDLLNEEETFDMSSMSGVGIDINQEQELDFINIFHNSQPTAMLTSSEDPYLATYSQATSTSSTTKFITEEPLLADMTSFDISYTSSQELGFGLVEDVSGSFASSCSDVAAAIPAPIQHPIITNIKRSAPAPVESQPTKRSRLMLQIKTELAPAFSPTTPEIINQLLNDDRFEAPTTSTSTSTSNTSISSSTHADIVEDLRSAEEETTTDFSAPNTPHSNYSASSSCAAPTCQTGYGGFLTAPTSPAYSTASTSVFSPSPASGISGKRKRGRPAKDHADGPDPVLMSSMKSEEERKAYQDRLKNNEASRVSRRKTKVREEEEKRAEDTLLAENLRLRARADEVASRERKFKKYLMERQRQKSTYVKQEQD	not soluble
MSLTYYFSGTIDRVIFENTSNFFKIILLEIDDTDSDFDDFEIIVTGTIADVIEGENYTFWGELTQHPKYGQQLKVERYQRAKPSSAGLIKYFSSQHFKGIGKKTAEKIIHLYGDDPIDNILEDPDKLESISGLSKANRENLVSKLRLNYGAEQILAKLAEYGLNNKTAVQIFERYKEESLTVITENPYQLVEDIQGIGFKMADKLAEQVGINSDAPQRFRAALVHTLLETSIDKGDTYIEAKELLEKSLFILEEVRQVELDPSQIAQELTQLISEDKVQNIGTKIFDNTLFYAESGIHKHLTRILDRPLEKEISSQDIQTEIKHIQAEFNINYDKAQKNAIQKAIQSKVFLLTGGPGTGKTTVINGIIKAYANLHQIDLQKSDRPIILAAPTGRAARRMNELTGLPSATIHRHLGLNGDSEYQALDDFLDCDLIIIDEFSMVDTWLANQLFSAIASNTQVIIVGDSDQLPSVGPGQILADLLKINRLPQVSLTKIFRQSEDSTIVTLANQIRQGRLPTDFTAKKADRSYFEAQSTHIPQMIQKIVSSALKSGIDAQEIQILAPMYRGQAGITHLNKLMQDLLNPLNNQLEFQFNDLHFRKGDKVLHLINDAQINVFNGDIGYITDLIPAKYTESKQDEMILDFDGTEINYPRNEWLKITLAYAMSIHKSQGSEFKVVILPVTRQSGRLLQRNLIYTAITRSKSKLVMLGEIAAFDNAIKNEGTKRKTYLIERFKKDECSGHHNTEKNKQGVKESAAILKEDFILTERNILTIDPMIGLSQADIDLFFKKEGHHHHHH	soluble
MVKLHLKTTCREVPIEEIISTGQIQFFKHLSESTSEFKDQKNVERFRLIYNGRALNEESLKKITDADSIRVVLLPPLKTNNHIEEEQKNRISIALKECTAPYTRPNDRRLHGFNHDFALPDHMTTLLEKHPQLVHDNQFLSVLSDWSLFRAYCVQNDFKDDPIRGQFMYTNPDFLKVVENILSTVGSRYGYENLDYANVERNRPGMLAAQRPIGGAQPVTHALLQNALQAALANIAVPPANRVPAPANVQPAQQQQEEPMQQGYEQQAATLREFGFENDELIQLALEQANGDVQAAMEFLIDLQN	not soluble
MGRLGWVDPESFMQRNHELMDAYSAGKLAMEEFMAFSLEPMAGRTPEEVDHLVGPWVEDVIEPIIYSDACKCIAQHRAKGDRILVISASGVHLVKPIAERLGIDEVLGIELDVQHGVYSGATVGVLTYREGKITRLMEWLDAEGENLEGASFYSDSRNDLPLLLKVDHPNVVNPDPVLLEHAQQAGWPVHTWV	not soluble
MITMKISSRFSIAVHILSILKNNPSSLCTSDYMAESVNTNPVVIRKIMSYLKQAGFVYVNRGPGGAGLLKDLHEITLLDVYHAVNVVEEDKLFHIHEQPNPDCPIGANIQAVLEIILIQAQSAMEEVLRNITMGQLFETLQEKMNA	soluble
EPNRLIKEKSPYLLQHAYNPVDWYPWGEEAFEKARKENKPVFLSIGYSTCHWCHMMAHESFEDEEVAGLMNEAFVSIKVDREERPDIDNIYMTVCQIILGRGGWPLNIIMTPGKKPFFAGTYIPKNTRFNQIGMLELVPRIKEIWEQQHEEVLDSAEKITSTIQEMIKESSG	soluble
MGSDKIHHHHHHMKLAYFVIPHIGGTYSVFKHLRKGLAAYDIDVRWLGVCKETYGLPLDLQGETAFGQLLRMPVNLSERDCAARMAAAIENGGFDGVIVNVLGDQLQTNIARYLPEGILRILVVHNISPGTYAAARSVRDYAHVTIGVSERCRADLVARNGFPKDRTYAIPNAVDSDAFRSQAVRRVNRGPELKVLFVGRIEDASKGVMWLREILDGSPEAVRLTIVGDGPDMGKLRRRLASHDDRVSYAGSVQLSDIPVIMASHDVLIMPSRFEGLGMTMIEAMAGGCVPVVSHIRGVTDTIVEPGRNGFLFPIGNYTAAANAIGRLHADRDLLERMSIAGKEMVLNRFSIERMAARYNEVIAMTLNDRPGLSTVLRMEDWSIPAGLRPGLRTYLPLPLKNWLRVVRERL	not soluble
MTIKTLQYDDFMLYRERIRDLLVQIYDINFDVSHDYSINESNKKINLLDEYIKTNQAVLIGAVDGEKLVGFIWIYKHEYFGETRMHINQIIVDKEYKRKGIGKRLLEEAEKKAKELGIKVIDLFVSEKNAEAVNFYEKTGFVTERRYLKKILLEHHHHHH	not soluble
MGSDKIHHHHHHMTENKPSEQTNELKDLVVEKEFNQTLDDLLANPFGSDGESAASIVNNETDAAPRLVDMLTETNKKQALELSKQIEPGNQAAILGYGAPAQAKLHDFSHSMLAHVQKQDVGPIGDIISDLMYRLQEADPDELAARNKNVFTKMFHRVKQSINEITSKYQKIGTQIDRIALKLEHSKKRLMEDNSFLEQLYDKNKDYFQALNIYIAAGELKLEEINTKMLPELRKKAEQTGDQMDYQEVNDLTQFADRLDKRVYDLRLSRQITIQQAPQIRLIQNTNQALAEKIQSSIMTAIPLWKNQVAIALTLLRQQQAVAAQRQVSETTNELLKRNADMLKTNAIETARENERGIVDIETLKETQSSLIETLQETLKIQQEGRAKRAVAEKELVTMEQELKERLLEMK	not soluble
MSLTRDGSPWIPIAGEMHYSRIAAERWDTELAKMAAAGIDVVSTYVFWNHHEEREGEWDFSGNRNVRRFVELCARHGLHVIVRLGPFCHGEVRNGGLPDWLYGKSYEVRSLDAGFLDAVRGLYAHIAQQLRGLYFKDGGPIIAAQVDNEYMASSAPWEMTTGISREWVPSGHDGAGYLERLRDIAIEEGIDPPMFTCTGWQSPVPDDMLPLWGGYAYRPWLFYDGVGAEGMTEHPATDEYRYRRLHGSSTSDGFDPPYDPDSRPYACCEMGGGMFNSYDYRFVLPKRSVDAMANIKLGSGCDFLGYYMFHGGTNPKGAAGFLNEGQTPKRSYDFQAPLGKFGQVRESYRRLRTLHEFVKAFGPELAGMPVSLQDGQDRIDPSDSETLRYAVRSDGERGFVSIDNFQDHARVPSRHGEQIDVTTGTGERIRFTGIGLAEGENCILPFNMDLDGVRLVRANLQPVTVLRVPGRPFRTFVFLKPDGMDELTFHFEGDIQDVTVGKADFERFMVRDAAEIVCVTRALAGRMTVLDGGLAFVDDDNALLYEDGDGWTLESPRAENGIAAYPEGLLGSPRPVEPVSVYARMRRLHADRYEIALPAGMGRLFRDQRQVADVMLNIAYQGDIGWLFCGDVLIADNFCNGETWQVGLRDYADAIDAAGGKLTLVVTPLRRGVRVKVTSSMAARLEQSDACVADVTDVYATPVYHMPVGEGHHHHHH	soluble
MPKETFFNLPKDKRNLIISAAMDEFSKAGYNTASINQICKKSNIPKGSFYQYFTDKLDLYVYIMTLTIEEKIKFFSSAIAEFHTLTFLEQFRLLFLKGLEFAKKHPQYAALADQFSKEDNESVKSAVIKEGDKQAESLFMQMIHNAKTKGEIDSKVDSLALCLLLQSLNSAVNKYMIGKFGGISYEYNQEDINNFVDSLLDIIFSGIQNKAD	not soluble
MGHHHHHHSHMSENELSAEDTAFLEKAFELAQEALDEDEVPVGCVFVVNGTEIGRGRNRVNETGDPTRHAEMVAVTEMWKEHGTGCEDLLKKSTLYVSLEPCIMCSSAMYQLGIRKMVYGAENPRFGGVRSVGSAEKYRMEDNVQIVAGIWSERSVAMLKTFYEKLNPFAPPEKRKTKKPKLDEIK	not soluble
MSLSEKKVHLRLRKELSVPIAVVENESLAQLSYEEESQASLMDISMEQQQLRLHSHFDNSKVFTENNRYIVKTLQTDYSSGFSNDDELNGYIDMQIGYGLVNDHKKVYIWNIHSTQKDTPYITVPFRSDDNDEIAVAPRCILTFPATMDESPLALNPNDQDETGGLIIIKGSKAIYYEDINSINNLNFKLSEKFSHELELPINSSGGEKCDLMLNCEPAGIVLSTNMGRIFFITIRNSMGKPQLKLGKLLNKPFKLGIWSKIFNTNSSVVSLRNGPILGKGTRLVYITTNKGIFQTWQLSATNSHPTKLIDVNIYEAILESLQDLYPFAHGTLKIWDSHPLQDESSQLFLSSIYDSSCNETYYILSTIIFDSSSNSFTIFSTYRLNTFMESITDTKFKPKIFIPQMENANDTNEVTSILVMFPNAVVITQVNSKLDSSYSMRRKWEDIVSLRNDIDIIGSGYDSKSLYVLTKQMGVLQFFVKENEETNSKPEVGFVKSHVDQAVYFSKINANPIDFNLPPEISLDQESIEHDLKLTSEEIFHSNGKYIPPMLNTLGQHLSVRKEFFQNFLTFVAKNFNYKISPELKLDLIEKFEILNCCIKFNSIIRQSDVLNDIWEKTLSNYNLTQNEHLTTKTVVINSPDVFPVIFKQFLNHVVFVLFPSQNQNFKLNVTNLINLCFYDGILEEGEKTIRYELLELDPMEVDTSKLPWFINFDYLNCINQCFFDFTFACEEEGSLDSYKEGLLKIVKILYYQFNQFKIWINTQPVKSVNANDNFININNLYDDNHLDWNHVLCKVNLKEQCIQIAEFYKDLSGLVQTLQTLDQNDSTTVSLYETFFNEFPKEFSFTLFEYLIKHKKLNDLIFRFPQQHDVLIQFFQESAPKYGHVAWIQQILDGSYADAMNTLKNITVDDSKKGESLSECELHLNVAKLSSLLVEKDNLDINTLRKIQYNLDTIDAEKNISNKLKKGEVQICKRFKNGSIREVFNILVEELKSTTVVNLSDLVELYSMLDDEESLFIPLRLLSVDGNLLNFEVKKFLNALVWRRIVLLNASNEGDKLLQHIVKRVFDEELPKNNDFPLPSVDLLCDKSLLTPEYISETYGRFPIDQNAIREEIYEEISQVETLNSDNSLEIKLHSTIGSVAKEKNYTINYETNTVEYEGHHHHHH	soluble
MERDGYKCRICDHSYLDIHYKDGNVENKNLENLIVLCKQCHYRLHQKERMESIKQAFEDFLDELSKNPIEVVIDFSFKKIVESNEEKIRREIIQGFTRPFGVISRIQEKVRDAIMKEIEEEIEKEQASTPEHLRKVVLERNNYRCSVCGYGYLEVHHVDGNILNNTLDNLVTLCRRCHRKVHYHPSFHTTPEDMDKCIRSFHHEFYSTIYEIMKNKKGNIRISIKFDQLGVKGVKISRAQFKRINGLFNHEVINDGIFKQWEREIKNYLSRLEWEQQKEIYRNVYFLLECILPKDSFEAFVNLARKGKFDRRTLREAKKVLKNSIKLEHHHHHH	soluble
MSLEQHGNVVSVGLKLYNEILKETITRFKERRIEKKHSVNVEIENPPGRFFIPEDYVQNPVERLRLYRRLASSLDEEDLEEILEEMKDRFGEPPEEVKLLVDYFRLRVRASKLGIKKIRFDHSMVEIFPSRNSPFLNHPRYDRRSGSVVLYTRKDPVEFLMDMLKKEGHHHHHH	soluble
ENKTLDEVTSDLVSRGAKFVGEELQLDVGGLLLHFFNYNGKIVVSSMKKVGFLQTLNRKRLENHPSFVFLEKEVPKSVFLEVFVDLYTLFDKLLGFSPRSSLLLIGYEEDGLIKYRLEVM	not soluble
